In article PMC9828337 (Angewandte Chemie (International Ed. in English), 2022):

What was measured:
[1] = target: T1, VenL lyase domain (residues 1–212); test: MST
T1 chain: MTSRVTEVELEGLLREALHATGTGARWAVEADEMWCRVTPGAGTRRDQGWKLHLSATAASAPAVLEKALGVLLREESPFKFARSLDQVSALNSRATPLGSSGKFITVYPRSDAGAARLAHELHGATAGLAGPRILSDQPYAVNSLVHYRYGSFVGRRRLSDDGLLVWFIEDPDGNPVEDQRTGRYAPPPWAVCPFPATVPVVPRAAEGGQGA

[2] = target: CurKC lyase domain (residues 1–217) (Thermomonospora curvata DSM43183, fluorophore label in the MST assays (position not given)); test: MST

B1: VenL kinase domain (residues 213–513) (domain or fragment)
chain: DGSREARGAGAPVLLGGRFAVREAIRHTNKGGVYRGSDVRTGALVVIKEARPHVEADASGHDVRDWLRTEARTLERLRGTGLAPEPLALFEHGGHLFLAQQEVPGVALRTWVAEHFRDAGAERYRVDARAQVGRLVELVAAAHAHGCVLRDFTPGNVMVRPDGELRLIDLELAVLEGDAARPTRVGTPGFSAPERLTGAPVSPTGDYYSLGATACFVLAGKVPNLLPEEPATRAPEQRLAAWLSACAGPLRLPDGLAEMVLGLMKDAPAERWDPARAREALRRADRDDPVTGKPEDSKGSK
Which Kd [1] does the source give for B1 here?
Its Kd is 32.3 ± 2.9 µM.

And the Kd [2]?
Its Kd is 24.3 ± 3.5 µM.
